Test system: mutant form of α-Gal A expressed in HEK-293 cells
Assay: HEK assay (GLP HEK / Migalastat Amenability Assay): α-Gal A activity in lysates of transiently transfected HEK-293 cells incubated with or without 10 μM migalastat
Assay type: cell-based, human
Conditions: for Absolute increase (% WT): 10 μM migalastat versus baseline; for Relative increase: 10 μM migalastat α-Gal A activity relative to baseline; for 10 μM migalastat α-Gal A activity (% WT): 5 days; for 10 μM migalastat α-Gal A activity (% WT) / Baseline α-Gal A activity (% WT): percentage of baseline wild-type α-Gal A activity; for 10 μM migalastat α-Gal A activity (% WT) / Baseline α-Gal A activity (% WT) / Baseline α-Gal A activity / 10 μM migalastat α-Gal A activity: mean ± SEM; for Baseline α-Gal A activity (% WT): absence of migalastat; for Baseline α-Gal A activity / 10 μM migalastat α-Gal A activity: lysates of HEK-293 cells transfected with the mutant form; for Baseline α-Gal A activity: incubated 5 days in the absence of migalastat; for 10 μM migalastat α-Gal A activity: incubated 5 days with 10 μM migalastat
Procedure, shortened: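 Activity reported as 4-MU released (nmol/mg/hr), mean±SEM, from lysates of transiently transfected HEK-293 cells expressing mutant α-Gal A, cultured with or without 10 μM migalastat.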

Molecule	Absolute increase (% WT)	Relative increase	10 μM migalastat α-Gal A activity (% WT)	Baseline α-Gal A activity (% WT)	Baseline α-Gal A activity [nmol/mg/h]	10 μM migalastat α-Gal A activity [nmol/mg/h]
V137L (protein) MQLRNPELHLGCALALRFLALVSWDIPGARALDNGLARTPTMGWLHWERFMCNLDCQEEPDSCISEKLFMEMAELMVSEGWKDAGYEYLCIDDCWMAPQRDSEGRLQADPQRFPHGIRQLANYVHSKGLKLGIYADLGNKTCAGFPGSFGYYDIDAQTFADWGVDLLKFDGCYCDSLENLADGYKHMSLALNRTGRSIVYSCEWPLYMWPFQKPNYTEIRQYCNHWRNFADIDDSWKSIKSILDWTSFNQERIVDVAGPGGWNDPDMLVIGNFGLSWNQQVTQMALWAIMAAPLFMSNDLRHISPQAKALLQDKDVIAINQDPLGKQGYQLRQGDNFEVWERPLSGLAWAVAMINRQEIGGPRSYTIAVASLGKGVACNPACFITQLLPVKRKLGFYEWTSRLRSHINPTGTVLLQLENTMQMSLKDLL	11.7	1.3	53.3 ± 3.7	41.6 ± 2.1	15359 ± 656	19794 ± 1475
K140E (protein) MQLRNPELHLGCALALRFLALVSWDIPGARALDNGLARTPTMGWLHWERFMCNLDCQEEPDSCISEKLFMEMAELMVSEGWKDAGYEYLCIDDCWMAPQRDSEGRLQADPQRFPHGIRQLANYVHSKGLKLGIYADVGNETCAGFPGSFGYYDIDAQTFADWGVDLLKFDGCYCDSLENLADGYKHMSLALNRTGRSIVYSCEWPLYMWPFQKPNYTEIRQYCNHWRNFADIDDSWKSIKSILDWTSFNQERIVDVAGPGGWNDPDMLVIGNFGLSWNQQVTQMALWAIMAAPLFMSNDLRHISPQAKALLQDKDVIAINQDPLGKQGYQLRQGDNFEVWERPLSGLAWAVAMINRQEIGGPRSYTIAVASLGKGVACNPACFITQLLPVKRKLGFYEWTSRLRSHINPTGTVLLQLENTMQMSLKDLL	59.5	1.8	132.1 ± 9	72.6 ± 5.8	26053 ± 1925	46670 ± 2685
N139I (protein) MQLRNPELHLGCALALRFLALVSWDIPGARALDNGLARTPTMGWLHWERFMCNLDCQEEPDSCISEKLFMEMAELMVSEGWKDAGYEYLCIDDCWMAPQRDSEGRLQADPQRFPHGIRQLANYVHSKGLKLGIYADVGIKTCAGFPGSFGYYDIDAQTFADWGVDLLKFDGCYCDSLENLADGYKHMSLALNRTGRSIVYSCEWPLYMWPFQKPNYTEIRQYCNHWRNFADIDDSWKSIKSILDWTSFNQERIVDVAGPGGWNDPDMLVIGNFGLSWNQQVTQMALWAIMAAPLFMSNDLRHISPQAKALLQDKDVIAINQDPLGKQGYQLRQGDNFEVWERPLSGLAWAVAMINRQEIGGPRSYTIAVASLGKGVACNPACFITQLLPVKRKLGFYEWTSRLRSHINPTGTVLLQLENTMQMSLKDLL	26.4	1.5	78.3 ± 4.5	51.8 ± 5.1	17180 ± 1455	26326 ± 1627
G138A (protein) MQLRNPELHLGCALALRFLALVSWDIPGARALDNGLARTPTMGWLHWERFMCNLDCQEEPDSCISEKLFMEMAELMVSEGWKDAGYEYLCIDDCWMAPQRDSEGRLQADPQRFPHGIRQLANYVHSKGLKLGIYADVANKTCAGFPGSFGYYDIDAQTFADWGVDLLKFDGCYCDSLENLADGYKHMSLALNRTGRSIVYSCEWPLYMWPFQKPNYTEIRQYCNHWRNFADIDDSWKSIKSILDWTSFNQERIVDVAGPGGWNDPDMLVIGNFGLSWNQQVTQMALWAIMAAPLFMSNDLRHISPQAKALLQDKDVIAINQDPLGKQGYQLRQGDNFEVWERPLSGLAWAVAMINRQEIGGPRSYTIAVASLGKGVACNPACFITQLLPVKRKLGFYEWTSRLRSHINPTGTVLLQLENTMQMSLKDLL	20.1	2.3	34.5 ± 1.5	14.4 ± 1.1	4768 ± 480	11112 ± 732
N139Y (protein) MQLRNPELHLGCALALRFLALVSWDIPGARALDNGLARTPTMGWLHWERFMCNLDCQEEPDSCISEKLFMEMAELMVSEGWKDAGYEYLCIDDCWMAPQRDSEGRLQADPQRFPHGIRQLANYVHSKGLKLGIYADVGYKTCAGFPGSFGYYDIDAQTFADWGVDLLKFDGCYCDSLENLADGYKHMSLALNRTGRSIVYSCEWPLYMWPFQKPNYTEIRQYCNHWRNFADIDDSWKSIKSILDWTSFNQERIVDVAGPGGWNDPDMLVIGNFGLSWNQQVTQMALWAIMAAPLFMSNDLRHISPQAKALLQDKDVIAINQDPLGKQGYQLRQGDNFEVWERPLSGLAWAVAMINRQEIGGPRSYTIAVASLGKGVACNPACFITQLLPVKRKLGFYEWTSRLRSHINPTGTVLLQLENTMQMSLKDLL	11.7	1.2	64 ± 5.2	52.3 ± 3.8	19998 ± 1682	24303 ± 2079
N139K (protein) MQLRNPELHLGCALALRFLALVSWDIPGARALDNGLARTPTMGWLHWERFMCNLDCQEEPDSCISEKLFMEMAELMVSEGWKDAGYEYLCIDDCWMAPQRDSEGRLQADPQRFPHGIRQLANYVHSKGLKLGIYADVGKKTCAGFPGSFGYYDIDAQTFADWGVDLLKFDGCYCDSLENLADGYKHMSLALNRTGRSIVYSCEWPLYMWPFQKPNYTEIRQYCNHWRNFADIDDSWKSIKSILDWTSFNQERIVDVAGPGGWNDPDMLVIGNFGLSWNQQVTQMALWAIMAAPLFMSNDLRHISPQAKALLQDKDVIAINQDPLGKQGYQLRQGDNFEVWERPLSGLAWAVAMINRQEIGGPRSYTIAVASLGKGVACNPACFITQLLPVKRKLGFYEWTSRLRSHINPTGTVLLQLENTMQMSLKDLL	33.8	1.3	127.4 ± 8.8	93.6 ± 5.8	33797 ± 2244	45090 ± 2667
N139H (protein) MQLRNPELHLGCALALRFLALVSWDIPGARALDNGLARTPTMGWLHWERFMCNLDCQEEPDSCISEKLFMEMAELMVSEGWKDAGYEYLCIDDCWMAPQRDSEGRLQADPQRFPHGIRQLANYVHSKGLKLGIYADVGHKTCAGFPGSFGYYDIDAQTFADWGVDLLKFDGCYCDSLENLADGYKHMSLALNRTGRSIVYSCEWPLYMWPFQKPNYTEIRQYCNHWRNFADIDDSWKSIKSILDWTSFNQERIVDVAGPGGWNDPDMLVIGNFGLSWNQQVTQMALWAIMAAPLFMSNDLRHISPQAKALLQDKDVIAINQDPLGKQGYQLRQGDNFEVWERPLSGLAWAVAMINRQEIGGPRSYTIAVASLGKGVACNPACFITQLLPVKRKLGFYEWTSRLRSHINPTGTVLLQLENTMQMSLKDLL	28.1	1.4	101.2 ± 7.1	73.1 ± 5.4	29115 ± 2336	40678 ± 3158
